Molecular target: MAP-PrP, multiple antigen peptide presenting amino acids 144-153 of human prion protein (human)
Assay: ELISA (Fig. 9)

B1: F2 scFv (scFv)
scFv: VQLLESGGGLVQPGGSLRLSCAASGFTFSGYWMHWVRQAPGKGLEWVSEISGSGDSTHYGDSVKGRFTISRDNSKNTLYLQMNSLRAEDTAVYYCARGRNGSLDYWGQGTLVTVSSGSAGGGGSGGGGSGGGGSDIVLTQPPSASGTPGQRVTISCSGTSSNIGADYDVHWYQQLPGKAPKLLIYDNNKRPSGVSDRFSGSKSGTSASLAISGLRSEDEADYYCAAWDSSLSSVVFGGGTQLTV
notes: also called TAR1; scFv F2
B1: no binding.
